We go through eight molecules from patent US20180086841A1 (Merck Sharp & Dohme, published 2018).

By EC50 is commonly meant the concentration needed to bring the measured effect to its halfway point. A higher EC50 goes with a less potent agent. What is called Kd is the constant that tells how readily two partners part at equilibrium.

Assay [1] deals with T1, human CD27 (human, UniProt P26842 21-260). Description: cell-based or functional assay.
Assay [2] addresses T2, human CD27 (A59T) (human, UniProt P26842 21-260). Description: cell-based or functional assay.
The target of assay [3] is T3, Macaca mulatta CD27 (mmCD27) (Macaca mulatta (rhesus) / Macaca …, UniProt P26842 21-260 (human entry)).
T3 chain: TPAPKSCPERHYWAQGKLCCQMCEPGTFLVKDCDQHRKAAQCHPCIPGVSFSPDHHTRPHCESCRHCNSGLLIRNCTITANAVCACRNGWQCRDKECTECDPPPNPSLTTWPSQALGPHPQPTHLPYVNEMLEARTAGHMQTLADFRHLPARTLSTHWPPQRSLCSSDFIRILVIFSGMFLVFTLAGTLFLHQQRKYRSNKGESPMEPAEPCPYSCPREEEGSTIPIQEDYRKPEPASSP
Description: cell-based or functional assay.

Assay [4] has as its target T1, human CD27. Description: flow cytometry on primary T cells. Background: Flow cytometry measures light scatter and fluorescence of single cells or particles in a stream.
For assay [5], the target named is T1, human CD27. Description: cell ELISA on transfected CHO cells. A general note: In an ELISA, binding on a coated surface is turned into a signal by an enzyme label.
Description: (§1) Purified antibodies were assayed for binding to human CD27 expressing CHOK1 cells using a cell-based ELISA format. Human CD27 expressing CHOK1 cells were plated in 96-well tissue-culture plates in 50 μl of DMEM/F12, 10% BCS (bovine calf serum) (CHO-K1 media). Cells were plated at either 2×10⁴ cells/well two days prior to the assay or 4×10⁴ cells/well one day prior to the assay. Media was removed from the wells prior to the assay followed by incubation of mAb in 100 μL fresh culture medium at a starting concentration of 10 μg/mL and 8 step 1:5 serial dilutions (hIgG4 antibodies) or starting concentration of 50 μg/mL and 8 step 1:5 serial dilutions (hIgG1 antibodies). The antibodies were incubated for 30-60 minutes at room temperature and washed 3 times with PBS/0.05% Tween 20 using a cell ELISA washing protocol on the Biotek EL405x Select CW plate washer.
Assay [6] deals with T1, human CD27. Description: cell ELISA on human CD27 CHOK1 cells, hIgG1.
Description: as §1
Assay [7] has as its target T1, human CD27. Description: flow cytometry MFI, CD4+ T cells of human PBMC, N=2 donors.
The target of assay [8] is T1, human CD27. Description: flow cytometry MFI, CD8+ T cells of human PBMC, N=2 donors.
Description: Labeled cells were washed by re-suspending them in 150 ul of staining buffer (SB) followed by centrifugation at 300 g for 5 minutes. Cells were then resuspended in 100 ul of SB containing primary anti-CD27 antibodies at various concentrations, incubated in the dark at 4° C. for 30 minutes, followed by washing and centrifugation steps as previously described. […] Cells were incubated for 30 minutes at 4° C. in the dark, followed by washing and centrifugation steps. Next, cells were stained with a cocktail of phenotypic antibodies for surface markers (CD3, CD4, CD8, CD11b) and incubated for 30 minutes at 4° C. in the dark, followed by washing and centrifugation steps. […] Samples were acquired in a LSR-Fortessa flow cytometer (BD Biosciences) using the high throughput sampler and data analyzed by FlowJo software (Tree Star Inc).
The target of assay [9] is T4, His9G-tagged human CD27 recombinant protein (human, UniProt P26842 21-191).
T4 construct: In-house, transient transfection of HEK293 cells; also called Human CD27/His
The experiment in a line: SPR Biacore 4000, antibody captured on anti-human Fc, His9G-tagged CD27 injected, 1:1 fit.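 Note: Double-referenced SPR (blank anti-Fc surface and buffer injection subtracted), KD derived from association and dissociation rate constants, with human and cynomolgus CD27 as analytes.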 For orientation: SPR reads the build-up and loss of mass on a sensor chip optically.
Description: (§2) Flow cell spots modified with anti-human Fc antibody but lacking CD27 antibodies were used as reference. […] The chip surface was regenerated with a 30 second injection of 3M MgCl₂ after each injection cycle.
(§3) Data were double referenced by subtracting the response from a blank surface and that from a buffer injection and used for analyzing the rate constant of association (kₐ) and dissociation (kd), and the equilibrium dissociation constant KD. The resulting data sets were fitted with a Langmuir 1:1 binding model using the Biacore 4000 BIAevaluation software, version 1.0 (GE/Biacore).

The target in assay [10] is T5, His9G-tagged cynomolgus CD27 recombinant protein (cynomolgus, limits assumed).
T5 construct: In-house, transient transfection of HEK293 cells; also called Cyno CD27/His
T5 chain: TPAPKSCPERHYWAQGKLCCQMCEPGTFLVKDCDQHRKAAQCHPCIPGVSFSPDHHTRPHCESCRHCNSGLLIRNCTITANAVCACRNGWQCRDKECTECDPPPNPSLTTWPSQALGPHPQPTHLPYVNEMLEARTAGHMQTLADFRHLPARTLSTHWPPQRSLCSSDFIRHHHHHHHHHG
Described as above.
Description: as §2, §3

For assay [11], the target named is T3, Macaca mulatta CD27 (mmCD27). Description: cell-based or functional assay.
Assay [12] deals with T1, human CD27. Description: cell-based or functional assay. The source holds these as a separate data set.
The target in assay [13] is T2, human CD27 (A59T). The experiment in a line: cell-based or functional assay. This is another data set of the same source.
The target of assay [14] is T3, Macaca mulatta CD27 (mmCD27). Description: cell-based or functional assay.
Assay [15] has as its target T1, human CD27. Description: cell ELISA on CD27-transfected CHOK1 cells, n=2.
Description: (§4) Purified antibodies were assayed for binding to human CD27 expressing CHOK1 cells, human CD27 A59T expressing CHOK1 cells, and cross-reactivity to rhesus CD27 expressing CHOK1 cells using a cell-based ELISA format. Human CD27 expressing CHOK1 cells, human CD27 A59T expressing CHOK1 cells, and rhesus CD27 expressing CHOK1 cells were plated in 96-well tissue-culture plates in 50 μl of DMEM/F12, 10% BCS and gentamycin (CHO-K1 media). Cells were plated at either 2×10⁴ cells/well two days prior to the assay or 4×10⁴ cells/well one day prior to the assay. Media was removed from the wells prior to the assay followed by incubation of mAb in 100 μL fresh culture medium at a starting concentration of 10 μg/mL and 8 step 1:4 serial dilutions. The antibodies were incubated for 30-60 minutes at room temperature and washed 3 times with PBS/0.05% Tween 20 using a cell ELISA washing protocol on the Biotek EL405x Select CW plate washer. […] Assay plates were washed as above and developed with TMB and stopped with TMB stop solution (KPL cat#50-85-06) or 0.1N phosphoric acid. The plate was read on a Molecular Devices VersaMax plate reader at 450 nm/650 nm. Titration curves were used to determine the half-maximal effective concentration (EC₅₀).
Assay [16] has as its target T2, human CD27 (A59T). The experiment in a line: cell ELISA on CD27-transfected CHOK1 cells, n=2.
Description: as §4
Assay [17] addresses T3, Macaca mulatta CD27 (mmCD27). Description: cell ELISA on CD27-transfected CHOK1 cells, n=2.
Description: as §4
The target of assay [18] is T1, human CD27. Description: flow cytometry MFI, CD4+ T cells in human peripheral blood, n=4.
Description: (§5) Upon receipt, blood was visually confirmed to be devoid of obvious signs of lysis or clotting. […] Red blood cells (RBCs) were then lysed by incubation with 1.7 mL of Ammonium-Chloride-Potassium red blood cell lysing solution (Life Technologies, catalog no. A10492-01) for 5 minutes. The lysis step was repeated once more with 2 ml of ACK lysing solution, and then again with 300 ml of ACK lysing solution. Cells were then washed after adding 1.7 ml of phosphate buffered saline (PBS) (Hyclone, catalog no. SH30028.02). […] After a final wash in SB, samples were acquired in a LSR-Fortessa flow cytometer (BD Biosciences) using the high throughput sampler and data analyzed by FlowJo software (Tree Star Inc).
Assay [19] concerns the target T1, human CD27. Description: flow cytometry MFI, CD8+ T cells in human peripheral blood, n=4.
Description: as §5
Assay [20] deals with T3, Macaca mulatta CD27 (mmCD27). The experiment in a line: flow cytometry MFI, CD4+ T cells in rhesus peripheral blood, n=4.
Description: as §5
For assay [21] the target is unchanged. Description: flow cytometry MFI, CD8+ T cells in rhesus peripheral blood, n=4.
Description: as §5
Assay [22] has as its target T6, human CD27-Fc fusion protein (human, UniProt P26842 21-191).
T6 construct: not shown: Fc part
The experiment in a line: SPR Biacore T200, CD27-Fc amine-coupled, antibody injected, 1:1 Langmuir fit.

Assay [23] deals with T7, human CD27 A59T-Fc fusion protein (human, UniProt P26842 21-191).
T7 construct: not shown: Fc part
T7 chain: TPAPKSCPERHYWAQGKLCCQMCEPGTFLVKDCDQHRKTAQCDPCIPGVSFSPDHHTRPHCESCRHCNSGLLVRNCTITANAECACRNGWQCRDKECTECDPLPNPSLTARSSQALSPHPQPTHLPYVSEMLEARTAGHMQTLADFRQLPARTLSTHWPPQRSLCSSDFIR
The assay is described as above.

Assay [24] addresses T8, rhesus macaque CD27-Fc fusion protein (rhesus macaque, UniProt P26842 21-191 (human entry), limits assumed).
T8 construct: not shown: Fc part
T8 chain: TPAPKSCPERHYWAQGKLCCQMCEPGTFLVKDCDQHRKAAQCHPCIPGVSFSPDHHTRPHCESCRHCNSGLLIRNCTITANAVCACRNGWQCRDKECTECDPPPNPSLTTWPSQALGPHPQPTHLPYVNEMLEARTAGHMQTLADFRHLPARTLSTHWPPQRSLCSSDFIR
Described as above.

Changes are numbered by the printed parent chain.

B1: hCD27.15-4B IgG4 (antibody, V domains shown)
VH: QVQLVQSGAEVKKPGASVKVSCKASGFIIKATYMHWVRQAPGQRLEWMGRIDPANGETKYDPKFQVRVTITADTSASTAYMELSSLRSEDTAVYYCARYAWYFDVWGQGTLVTVSS
VL: DIQMTQSPSSLSASVGDRVTITCRASENIYSFLAWYQQKPGKAPKLLIYHAKTLAEGVPSRFSGSGSGTDFTLTISSLQPEDFATYYCQHYYGSPLTFGQGTKVEIKR
B1: the “NF-κB-luciferase reporter assay, Fold Change values at 2.5 µg/ml” value with human CD27 [1] was found to be 1.82 fold change; with human CD27 (A59T) [2], 0.97 fold change; in assay [3] it was 0.99 fold change.

B2: hCD27.131A VH7VL7 huIgG1 (antibody, V domains shown)
VH: EIQLVQSGAEVKKPGASVKISCKASGYTFTNYGMNWVKQAPGQGLKWMGWINTNTGEPTYAEEFKGRFTFTLDTSATTAYLEISSLRSEDTAVYYCAREGDAMDYWGQGTTVTVSS
VL: EIVLTQSPATLSLSPGERATLSCSASSSVSYMHWYQQKPGQAPKRWIYDTSKLASGVPARFSGSGSGTSYSLTISSLEPEDFATYYCQQWNSYPFTFGQGTKLEIK
With B2, the “EC50 relative to 131AVH6VL6-hIgG1” value in the assay with human CD27 [4] is ≤ 10 % above the EC50 of 131AVH6VL6-hIgG1. Further, the “fold EC50 against 131AVH6VL6-hIgG1” value with human CD27 [5] was no more than 2 fold. For the same molecule, the EC50 worked out at 207 pM with human CD27 [6], 113 pM with human CD27 [7] and 111 pM with human CD27 [8]. In addition, the dissociation constant (Kd) in assay [9] stood at 38900 pM; in assay [10], 31700 pM.

B3: hCD27.131A VH8VL8 huIgG1 (antibody, V domains shown)
VH: B2 VH with I20V, A76I, T77S, L81M, I83L, S88N
VL: B2 VL with L13A, A19V, S69D, L77M, T84V
Regarding B3, the “EC50 relative to 131AVH6VL6-hIgG1” value with human CD27 [4] is ≤ 10 % above the EC50 of 131AVH6VL6-hIgG1. In the assay with human CD27 [5], the “fold EC50 against 131AVH6VL6-hIgG1” value is no more than 2 fold. Moreover, the concentration giving a half-maximal response (EC50) was 145 pM in the assay with human CD27 [6], 135 pM with human CD27 [7] and 131 pM with human CD27 [8]. In addition, the figures for the Kd in assay [9] and in [10] were 61000 pM and 32300 pM, respectively.

B4: hCD27.131A VH8VL7 huIgG1 (antibody, V domains shown)
VH: B2 VH with I20V, A76I, T77S, L81M, I83L, S88N
VL: B2 VL
With B4, the “EC50 relative to 131AVH6VL6-hIgG1” value with human CD27 [4] was ≤ 10 % above the EC50 of 131AVH6VL6-hIgG1. For the same molecule, the “fold EC50 against 131AVH6VL6-hIgG1” value with human CD27 [5] is no more than 2 fold. Further, the EC50 with human CD27 [6] was found to be 262 pM; in the assay with human CD27 [7], 115 pM; with human CD27 [8], 110 pM. Further, the Kd in [9] was found to be 63300 pM; in assay [10], 44100 pM.

B5: hCD27.131A VH8VL6 huIgG1 (antibody, V domains shown)
VH: B2 VH with I20V, A76I, T77S, L81M, I83L, S88N
VL: B2 VL with S69D, T84V
As to B5, in the assay with human CD27 [4], the “EC50 relative to 131AVH6VL6-hIgG1” value is ≤ 10 % above the EC50 of 131AVH6VL6-hIgG1. Moreover, in the assay with human CD27 [5], the “fold EC50 against 131AVH6VL6-hIgG1” value was no more than 2 fold. Besides, the EC50 stood at 298 pM in the assay with human CD27 [6], 124 pM in the assay with human CD27 [7] and 113 pM with human CD27 [8]. Also, the results for the Kd in [9] and in [10] were 64400 pM and 46600 pM, respectively.

B6: hCD27.131A VH7VL8 huIgG1 (antibody, V domains shown)
VH: B2 VH
VL: B2 VL with L13A, A19V, S69D, L77M, T84V
Regarding B6, the “EC50 relative to 131AVH6VL6-hIgG1” value with human CD27 [4] was ≤ 10 % above the EC50 of 131AVH6VL6-hIgG1. For the same molecule, the “fold EC50 against 131AVH6VL6-hIgG1” value with human CD27 [5] was no more than 2 fold. Further, the 50% effective concentration (EC50) worked out at 144 pM in the assay with human CD27 [6], 118 pM with human CD27 [7] and 118 pM with human CD27 [8]. Further, the Kd in [9] amounted to 44900 pM; in [10] it was 36500 pM.

B7: 131AVH6VL6-hIgG1 (antibody)
heavy: not shown
light: EIVLTQSPATLSLSPGERATLSCSASSSVSYMHWYQQKPGQAPKRWIYDTSKLASGVPARFSGSGSGTDYSLTISSLEPEDFAVYYCQQWNSYPFTFGQGTKLEIKRTVAAPSVFIFPPSDEQLKSGTASVVCLLNNFYPREAKVQWKVDNALQSGNSQESVTEQDSKDSTYSLSSTLTLSKADYEKHKVYACEVTHQGLSSPVTKSFNRGEC
notes: also called hCD27.131A VH6VL6 huIgG1
In the case of B7, in [11], the “NF-κB-luciferase reporter assay, potency against human CD27” value was roughly 7 fold. Besides, the figures for the “NF-κB-luciferase reporter assay, EC50” value (with human CD27 [12]; with human CD27 (A59T) [13]; in [14]) were 2220 pM, 4720 pM and 290 pM, respectively. Besides, the “NF-κB-luciferase reporter assay, Emax” value worked out at 2.96 fold change with human CD27 [12], 3.22 fold change in the assay with human CD27 (A59T) [13] and 2.11 fold change in assay [14]. Also, the 50% effective concentration (EC50) with human CD27 [6] is 155 pM; with human CD27 [15] it was 72 pM; with human CD27 (A59T) [16] it was 97 pM; in [17], 54 pM; in the assay with human CD27 [7], 137 pM; with human CD27 [8], 123 pM. In addition, the 50% effective concentration (EC50) came out at 320 pM with human CD27 [18], 300 pM with human CD27 [19], 170 pM in [20] and 220 pM in assay [21]. For the same molecule, the dissociation constant Kd in assay [22] is 5100 pM; in [23], 7300 pM; in assay [24], 4300 pM; in [9], 65200 pM; in [10], 51500 pM.

B8: 131AVH6VL6-hIgG2 (antibody)
heavy: EIQLVQSGAEVKKPGASVKVSCKASGYTFTNYGMNWVKQAPGQGLKWMGWINTNTGEPTYAEEFKGRFTFTLDTSISTAYMELSSLRSEDTAVYYCAREGDAMDYWGQGTTVTVSSASTKGPSVFPLAPCSRSTSESTAALGCLVKDYFPEPVTVSWNSGALTSGVHTFPAVLQSSGLYSLSSVVTVPSSNFGTQTYTCNVDHKPSNTKVDKTVERKCCVECPPCPAPPVAGPSVFLFPPKPKDTLMISRTPEVTCVVVDVSHEDPEVQFNWYVDGVEVHNAKTKPREEQFNSTFRVVSVLTVVHQDWLNGKEYKCKVSNKGLPAPIEKTISKTKGQPREPQVYTLPPSREEMTKNQVSLTCLVKGFYPSDIAVEWESNGQPENNYKTTPPMLDSDGSFFLYSKLTVDKSRWQQGNVFSCSVMHEALHNHYTQKSLSLSPGK
light: B7 light
notes: also called 131A6 IgG2 (humanized)
Turning to B8, the Kd in assay [22] turned out to be 6400 pM; in [23] it was 8200 pM; in [24], 5500 pM.
